Here are results for two molecules from article PMC4947154.

Assay [1] concerns the target CD320 extracellular, TC-binding part (MBP cleaved), as used for biochemical analysis of the complex (human) (UniProt Q9NPF0). The assay is described as follows: co-expression and co-purification; TC construct and His9-MBP-CD320 construct co-expressed and secreted from Sf21 cells, complex captured from the medium on Ni-NTA through the receptor's tag.
For assay [2] the target is unchanged. The assay is described as follows: cross-linking; purified complex at 10 mg/ml cross-linked with glutaraldehyde, 1 h RT, then high-mass MALDI-TOF mass spectrometry.
The target of assay [3] is MBP-tagged, biotinylated CD320 (CD320AVI) (human) (UniProt Q9NPF0). The experiment in a line: ELISA; solid-phase binding assay as a2, TC diluted in buffer with 100 mM Tris-HCl pH 7.5, 0.5 mM CaCl2, 150 mM NaCl; n=5. In general terms: An ELISA detects its analyte on a solid surface through an enzyme-linked reagent.
Assay [4] addresses MBP-tagged, biotinylated CD320ΔE88 (Avi Tag) (human) (UniProt Q9NPF0). The experiment in a line: ELISA; solid-phase binding assay: biotinylated MBP-tagged receptor on Neutravidin plates, tag-less TC serially diluted in 20 mM Tris pH 7.5, 0.5 mM CaCl2, 150 mM NaCl, 0.05% Tween-20, 1 h RT; TC detected with antibody A-5; single-site fit, n=5.
Assay [5] deals with MBP-tagged, biotinylated CD320 (CD320AVI) (human) (UniProt Q9NPF0). Described as above.
Assay [6] shares this target. The experiment in a line: ELISA; solid-phase binding assay as a2, TC diluted in buffer with 100 mM sodium acetate pH 4.8, 0.5 mM CaCl2, 150 mM NaCl; n=5.
Assay [7] deals with CD320(Gly4Ser)4 (flexible linker mutant: EGF-like domain replaced by (Gly4Ser)4) (human) (UniProt Q9NPF0). The experiment in a line: native MS; native ESI-MS of the purified complex and of its individually purified SEC peaks.
Sequence of CD320(Gly4Ser)4 (flexible linker mutant: EGF-like domain replaced by (Gly4Ser)4) (human) (Q9NPF0 other isoform, or with tags, fused parts or gaps, change not shown): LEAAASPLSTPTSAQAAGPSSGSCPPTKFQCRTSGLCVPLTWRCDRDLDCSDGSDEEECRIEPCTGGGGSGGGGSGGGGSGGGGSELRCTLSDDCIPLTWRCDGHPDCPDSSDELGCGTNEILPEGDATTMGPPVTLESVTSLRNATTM

B1: TCα (α domain of human transcobalamin, residues 1-290) (domain or fragment)
chain: EMCEIPEMDSHLVEKLGQHLLPWMDRLSLEHLNPSIYVGLRLSSLQAGTKEDLYLHSLKLGYQQCLLGSAFSEDDGDCQGKPSMGQLALYLLALRANCEFVRGHKGDRLVSQLKWFLEDEKRAIGHDHKGHPHTSYYQYGLGILALCLHQKRVHDSVVDKLLYAVEPFHQGHHSVDTAAMAGLAFTCLKRSNFNPGRRQRITMAIRTVQEEILKAQTPEGHFGNVYSTPLALQFLMTSPMRGAELGTACLKARVALLASLQDGAFQNALMISQLLPVLNHKTYIDLIFPD
One may read the stoichiometry N as the number of molecules, sites or subunits per partner or assembly. Turning to B1, the stoichiometry N in assay [1] is 1 TCα:CD320.

B2: human transcobalamin (holo-TC, cyanocobalamin-bound) (natural protein)
chain: EMCEIPEMDSHLVEKLGQHLLPWMDRLSLEHLNPSIYVGLRLSSLQAGTKEDLYLHSLKLGYQQCLLGSAFSEDDGDCQGKPSMGQLALYLLALRANCEFVRGHKGDRLVSQLKWFLEDEKRAIGHDHKGHPHTSYYQYGLGILALCLHQKRVHDSVVDKLLYAVEPFHQGHHSVDTAAMAGLAFTCLKRSNFNPGRRQRITMAIRTVQEEILKAQTPEGHFGNVYSTPLALQFLMTSPMRGAELGTACLKARVALLASLQDGAFQNALMISQLLPVLNHKTYIDLIFPDCLAPRVMLEPAAETIPQTQEIISVTLQVLSLLPPYRQSISVLAGSTVEDVLKKAHELGGFTYETQASLSGPYLTSVMGKAAGEREFWQLLRDPNTPLLQGIADYRPKDGETIELRLVSW
Broadly, the Kd is the free concentration of one partner at which half of the binding sites on the other are occupied at equilibrium, for simple one-to-one binding. Read a low Kd as higher affinity. For B2, the stoichiometry N in assay [2] and in assay [7] was 1 TC:CD320 in each case. The Kd in assay [3] stood at 1 nM; in assay [4], 1.5 nM; in assay [5], 1.5 nM; in assay [6], 58 nM.
